The values that follow come from paper PMC2715101, “Dimerization of Translationally Controlled Tumor Protein Is Essential For Its Cytokine-Like Activity” (PLoS ONE, 2009).

The target of data set [1] is Del-N35TCTP (residues 35-172) (rat) (UniProt P63029). The data set is described as follows: non-reducing SDS-PAGE; purified proteins boiled with or without β-ME, 15% gel, coomassie brilliant blue; dimer by intermolecular disulfide bond.
The target is the same in data set [2]. Put plainly: cross-linking; sulfhydryl crosslinkers BMOE (five-fold molar excess, 2 h) or BM(PEO)3 (five-fold molar excess, 1 h), room temperature, proteins first reduced with 20 mM DTT; each protein alone and their 1/2:1/2 molar mixture; reducing SDS-PAGE.
For data set [3] the target is unchanged.
The target is the same in data set [4]. The data set is described as follows: SEC; Superdex 200 HR 10/30, 50 mM sodium phosphate pH 7.0, 150 mM NaCl, calibrated with molecular size markers. On the technique in general: Size exclusion chromatography separates by hydrodynamic size, large species first.
For data set [5] the target is unchanged. The data set is described as follows: non-reducing SDS-PAGE; proteins completely reduced with 20 mM DTT, transferred to 50 mM Tris pH 7.5, 1 mM EDTA, then oxidized with 0.1, 1 or 10 mM H2O2.
Data set [6] deals with Fc-fused human recombinant TCTP (Fc-HrTCTP) (human | rabbit) (UniProt P13693). Put plainly: native gel or EMSA; Fc fusion proteins on a native gel, apparent molecular weights by a molecular size marker.
The target of data set [7] is Del-N35TCTP-C172S (rat) (UniProt P63029). The data set is described as follows: SEC; Superdex 200 HR 10/30, 50 mM sodium phosphate pH 7.0, 150 mM NaCl, calibrated with molecular size markers.
For data set [8] the target is unchanged.
The target of data set [9] is rabbit Fc protein (Fc) (rabbit). The data set is described as follows: native gel or EMSA; Fc fusion proteins on a native gel, apparent molecular weights by a molecular size marker. (In general: Mobility shift assays separate free from complexed probe on a gel.)
Data set [10] deals with TCTP in bronchoalveolar lavage fluid (BALF) of mice with airway inflammation (mouse (endogenous in BALB/c BALF)) (UniProt P63028). Put plainly: non-reducing SDS-PAGE and Western blotting; BALF from OVA-OVA and N11TCTP-N11TCTP mice. In general terms: A western blot detects proteins with antibodies after separation by electrophoresis.
Data set [11] concerns the molecule itself. The data set is described as follows: non-reducing SDS-PAGE; purified proteins boiled with or without β-ME, 15% gel, coomassie brilliant blue; dimer by intermolecular disulfide bond.
Data set [12] deals with the molecule itself. The data set is described as follows: cell-based or functional assay.

Substitutions are numbered along the chain they refer to. Names may count otherwise.

Broadly, the stoichiometry N is a count of units in the complex or per binding partner. Turning to “Del-N35TCTP (residues 35-172) (from UniProt P63029 35-172) (domain or fragment)”, the stoichiometry N in [1], in data set [2], in [4] and in data set [5] was 2 in each case. Besides, the IL-8 secretion from BEAS-2B cells by BM(PEO)3-treated DTT-pretreated Del-N35TCTP, percent of DTT-untreated Del-N35TCTP (% of DTT-untreated Del-N35TCTP) in [3] was found to be 122. In addition, the IL-8 secretion from BEAS-2B cells by BMOE-treated DTT-pretreated Del-N35TCTP, percent of DTT-untreated Del-N35TCTP (% of DTT-untreated Del-N35TCTP) in data set [3] was 108. The molecule also had an IL-8 secretion from BEAS-2B cells by DTT-treated Del-N35TCTP, percent of DTT-untreated Del-N35TCTP (% of DTT-untreated Del-N35TCTP) in data set [3] of 71.7.

As for “Fc-fused human recombinant TCTP (Fc-HrTCTP) (from UniProt P13693 1-172) (Fc fusion)”, the stoichiometry N in data set [6] worked out at 2.

For the molecule “Del-N35TCTP-C172S (from UniProt P63029 35-172) (domain or fragment)”, the stoichiometry N with Del-N35TCTP-C172S (rat) [7] was 2. The same molecule came in with an IL-8 secretion from BEAS-2B cells, 5 µm/ml protein, 24 h, percent of wild-type (Del-N35TCTP) (% of wild-type) with Del-N35TCTP-C172S (rat) [8] of 36.

Take “rabbit Fc protein (Fc) (domain or fragment)”: in data set [9], the stoichiometry N came out at 2.

The molecule “TCTP in bronchoalveolar lavage fluid (BALF) of mice with airway inflammation (from UniProt P63028 1-172) (natural protein)” yielded a stoichiometry N in data set [10] of 2.

B1: Del-N11TCTP-C172S (domain or fragment, rat, UniProt P63029 11-172, looked up)
chain: DELFSDIYKIREIADGLCLEVEGKMVSRTEGAIDDSLIGGNASAEGPEGEGTESTVVTGVDIVMNHHLQETSFTKEAYKKYIKDYMKSLKGKLEEQKPERVKPFMTGAAEQIKHILANFNNYQFFIGENMNPDGMVALLDYREDGVTPFMIFFKDGLEMEKS
Consider B1, for which the “stoichiometry N” value in [11] was found to be 2. The “IL-8 secretion from BEAS-2B cells, 5 µm/ml protein, 24 h, percent of wild-type (Del-N11TCTP)” value in [12] was 52 % of wild-type.

B2: Del-N11TCTP (residues 11-172) (domain or fragment, rat, UniProt P63029 11-172, looked up)
chain: B1 chain with S162C
notes: No stop codon in the reverse primer; also called Del-N11HRF
As to B2, in data set [11], the “stoichiometry N” value turned out to be 2.

B3: Del-N11TCTP-C28S (domain or fragment, rat, UniProt P63029 11-172, looked up)
chain: B1 chain with C18S, S162C
notes: No stop codon in the reverse primer
Regarding B3, the “stoichiometry N” value in data set [11] amounted to 2.
